B1: A4.2m (VHH)
VHH: QVKLEESGGGLVQAGGSLRLSCAASGRTFNTLSMGWFRQAPGKEREFVCAVSRSGGSTYYADSVKGRFTCSRDNAKNTVYLQMNSLKPEDTAVYYCAAAATKSNTTAYRLSFDYWGQGTQVTVSS
B2: A26.8m (VHH)
VHH: QVKLEESGGGLVQAGGSLRLSCAASERTFSRYPVAWFRQAPGAEREFVCVISSTGTSTYYADSVKGRFTCSRDNAKVTVYLQMNNLKREDTAVYFCAVNSQRTRLQDPNEYDYWGQGTQVTVSS
B3: A5.1m (VHH)
VHH: QVKLEESGGGLVQAGGSLRLSCAASGRTFSMYRMGWFRQAPGKEREFVCVITRNGSSTYYADSVKGRFTCSRDNAKNTVYLQMNSLKPEDTALYYCAATSGSSYLDAAHVYDYWGQGTQVTVSS
B4: A20.1m (VHH)
VHH: QVQLVESGGGLAQAGGSLRLSCAASGRTFSMDPMAWFRQPPGKEREFVCAGSSTGRTTYYADSVKGRFTCSRDNAKNTVYLQMNSLKPEDTAVYYCAAAPYGANWYRDEYAYWGQGTQVTVSS

The binders below were run against Clostridium difficile toxin A (Clostridioides difficile …, UniProt P16154) (assay: SPR). Conditions: both partners purified.

Binder	Kd [nM]	koff [s⁻¹]	kon [M⁻¹ s⁻¹]
B1	20	0.019	930000
B2	28	0.028	1e+06
B3	17	0.016	950000
B4	9.2	0.0059	640000
